Measurements as given in patent US20250236667A1, “ANTIBODIES TO MUTANT CALRETICULIN AND USES THEREOF” (CENTRAL ADELAIDE LOCAL HEALTH NETWORK INC, priority 2021, published 2025).

Assays:
mutant CALR protein = target: T1, mutant CALR protein (Homo sapiens, UniProt P27797); assay: Western blot detection of mutant CALR by hybridoma clones; type: binding
T1 construct: expressed in transfected cells; host or cells: TF-1 TpoR cells, pCX4-IRES eGFP vector
T1 sequence (P27797 with tags, fused parts or gaps limits assumed): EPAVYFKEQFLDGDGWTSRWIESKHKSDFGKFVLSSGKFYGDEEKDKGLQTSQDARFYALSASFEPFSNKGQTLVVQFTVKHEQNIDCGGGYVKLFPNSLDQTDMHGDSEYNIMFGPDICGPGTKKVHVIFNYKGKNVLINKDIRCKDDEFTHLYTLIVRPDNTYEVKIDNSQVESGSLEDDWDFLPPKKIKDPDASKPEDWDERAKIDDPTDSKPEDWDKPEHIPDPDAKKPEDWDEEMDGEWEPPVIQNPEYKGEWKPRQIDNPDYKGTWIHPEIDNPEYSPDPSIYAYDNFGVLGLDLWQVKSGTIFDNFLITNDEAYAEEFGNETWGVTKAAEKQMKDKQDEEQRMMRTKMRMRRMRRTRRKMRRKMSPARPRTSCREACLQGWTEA
Experimental: Rats were immunised with a CALR mutant peptide “MMRTKMRMRRMRRT RRKMRRKMSPARPRTS” coupled to KLH, this peptide sequence is unique to CALR mutant. Serum from the immunised rats was screened by enzyme linked immunoassay, to verify a strong titre to the peptide immunogen, prior to performing the hybridoma fusion. Immunised rat spleen cells were harvested and a spleen single cell suspension was combined with Sp2/O myeloma cell line. The cell mixture was treated with polyethylene glycol plus DMEM prior to been plated in 96 well flat bottom plates. The expanding hybridomas were screened initially by ELISA and the positive clones were further verified by western blot, for reactivity to the expressed CALR mutant protein before subcloning the hybridomas for antibody production.
For immunoblotting of total lysates, cells were lysed in NP40 buffer containing 150 mM NaCl, 50 mM Tris pH 7.6, 1% NP-40, supplemented with protease inhibitors (Complete, Roche) and phosphatase inhibitor cocktails, and boiled for 5 minutes after addition of sample buffer (60 mM Tris pH 6.8, 5% glycerol, 1% SDS, 2% β-mercaptoethanol, 0.02% bromophenol blue) before SDS gel electrophoresis followed by Western blotting (Tvorogov et al, 2010). Primary antibodies against pERK (#9101), pSTAT5 (#9359), ERK (#4695), Actin (#4970), Caspase 3 (#14220), wildtype CALR (#12238) were purchased from Cell Signalling. Primary antibodies against pSTATI (#612233), pSTAT3 (#612357), STATI (#610186), STAT3 (#610190), STAT5 (#610192) and Anti-phosphotyrosine 4G10 (#610012) were purchased from BD Biosciences. Mutant CALR monoclonal antibody CAL2 was purchased from Dianova (Hamburg, Germany). Immunopreciptation of TpoR was performed in standard NP40 lysis buffer with additional 50 mM iodoacetamide to avoid any de novo disulfide bond formation post lysis. To reduce IgG background during immunoprecipitation anti-FLAG conjugated to magnetic beads (Sigma, #M8823) were used. For this same reason, anti-FLAG-HRP conjugated antibodies (Sigma, #A8592) were used in western blotting.

[1] = system: TF-1 TpoR CALR^del61 and TF-1 TpoR CALR^del52 cells; assay: Western blot of caspase 3 cleavage; type: cell-based, human; settings: after 4D7 treatment, 20 μg/mL
Experimental: A. Cell extracts blotted for phospho-STAT5, total STAT5, phospho-ERK, total ERK and actin from TF-1 TpoR cells after incubation with 10 or 20 μg/mL 4D7 or IgG for 4 or 8 hours, in presence of TPO. The last line indicates TPO withdrawal. B. Similar experiment using TPO-independent TF-1 TpoR CALR^del61 cells. C. Similar experiment using TPO-independent TF-1 TpoR CALR^del52 cells at 8 hours. D. Fraction of apoptotic sub-Go population of TF-1 TpoR CALR^del61 cells after 48 hours of 4D7 or IgG treatment (n=3). E. Western blot showing caspase 3 cleavage occurring within 24 hours of TPO withdrawal in TPO dependent TF-1 TpoR cells. An increase in cleaved caspase 3 is observed after 48 hours of treatment with 20 μg/mL 4D7 in TF-1 TpoR CALR^del61 and TF-1 TpoR CALR^del52 cells. F. Western blot of TpoR immunoprecipitation under non-reducing conditions showing associated CALR 50 kDa monomers and 100 kDa dimers (arrowheads) present only in TF-1 TpoR CALR^del61 disrupted by 8 hour treatment with 20 μg/mL 4D7 but not PBS or 20 μg/mL IgG. CALR monomers & dimers are detectable by polyclonal anti-wild type CALR or anti-mutant CALR monoclonal antibodies. Arrowheads, detected mutant CALR protein: asterisk, non-specific bands. G. Proposed model for the mechanism of action of 4D7 on mutant CALR. […]

B1: 4D7: rat monoclonal IgG2a antibody against the mutant CALR neoepitope; VH SEQ ID NO: 5, VL SEQ ID NO: 7 (antibody, listed as Rattus rattus, V domains shown)
VH: QVQLQQSGAELAKPGSSVKISCKASGYTFTNYDMSWIKQRPGQALEWIGAINPGNGVTDYNEKFRGKATLTVDKSSSTAFMQLSSLTPEDTAVYHCAREYRDNYGYFDYWGQGVMVTVSS
VL: DIVLTQTPVSLSVTLGDQASISCRSSQSLEYSDGYTYLDWFLQKPGQSPQLLIYEVSSRFSGVPDRFIGRGSGTDFTLKISRVEPEDLGVYYCFQATHDPFTFGSGTKLEIK
reactivity to the peptide and CALR mutant protein among hybridoma clones (mutant CALR protein; 3 hybridoma screens, FIG. 6A): strongest reactivity | detection of mutant CALR protein by Western blot (mutant CALR protein; TF-1 TpoR CALR^del61 vs CALR wild type TF-1 cells): able to detect mutant CALR protein in CALR^del61 cells but not in CALR wild type TF-1 cells | time at which caspase 3 cleavage occurred [1]: ≤ 24 h | time at which caspase 3 cleavage peaked [1]: 48 h
